Test results from patent US20250346669A1 (DEUTSCHES KREBSFORSCHUNGSZENTRUM STIFTUNG DES FFENTLICHEN …, published 2025).

Key:
[1] = target: T1, human prostate specific membrane antigen (PSMA) (human, UniProt Q04609 1-750); experiment: flow cytometry on PSMA-expressing 22RV1 cells
T1 construct: whole, on cells; also called PMSA; FOLH1
Description: To this end, the cells were incubated with the indicated antibodies in 96 well plates for 30-45 min at 4° C. Upon incubation cells were washed and incubated with a secondary PE-goat-anti-human FC-γ specific fragment (Jackson ImmunoResearch). Cells were analyzed on a FACSCalibur (BD Biosciences).

[2] = target: T1, human prostate specific membrane …; experiment: in vivo biodistribution of radioisotope labeled CC-1 in mice with 22Rv1 (PSMA positive) or DU145 (PSMA negative) tumors
[3] = target: T1, human prostate specific membrane …; experiment: flow cytometry on PSMA-transfected Sp2/0 cells
Description: Binding (FIG. 5A), lack of binding competition (FIG. 5B) and shift of the PSMA antigen upon antibody binding (FIG. 5C) was assessed by flow cytometry using PSMA-transfected Sp2/0 cells. To this end different α-PSMA antibodies were incubated with these cells in 96-well plates for 30-45 min at 4° C. Cells were then washed and incubated with a PE-conjugated goat-anti-mouse F(ab)₂ fragment (FIGS. 5A, 5C) (Jackson ImmunoResearch) or a PE-goat-anti-human FC-γ specific fragment (Jackson ImmunoResearch) (B). Cells were analyzed on a FACSCalibur (BD Biosciences). […] For the determination of antigen shift (FIG. 5C) PSMA expressing cells were incubated with the indicated antibodies at the beginning of the experiment and again after 24 hrs and before FACS analysis with a saturating amount (10 μg/ml) of the respective antibody. PSMA expression by untreated cells served as a reference (100% PSMA expression)

B1: PSMA (humanized h10B3) x CD3 (murine OKT3) bispecific Fabsc format antibody molecule (bispecific antibody, IgG1)
heavy: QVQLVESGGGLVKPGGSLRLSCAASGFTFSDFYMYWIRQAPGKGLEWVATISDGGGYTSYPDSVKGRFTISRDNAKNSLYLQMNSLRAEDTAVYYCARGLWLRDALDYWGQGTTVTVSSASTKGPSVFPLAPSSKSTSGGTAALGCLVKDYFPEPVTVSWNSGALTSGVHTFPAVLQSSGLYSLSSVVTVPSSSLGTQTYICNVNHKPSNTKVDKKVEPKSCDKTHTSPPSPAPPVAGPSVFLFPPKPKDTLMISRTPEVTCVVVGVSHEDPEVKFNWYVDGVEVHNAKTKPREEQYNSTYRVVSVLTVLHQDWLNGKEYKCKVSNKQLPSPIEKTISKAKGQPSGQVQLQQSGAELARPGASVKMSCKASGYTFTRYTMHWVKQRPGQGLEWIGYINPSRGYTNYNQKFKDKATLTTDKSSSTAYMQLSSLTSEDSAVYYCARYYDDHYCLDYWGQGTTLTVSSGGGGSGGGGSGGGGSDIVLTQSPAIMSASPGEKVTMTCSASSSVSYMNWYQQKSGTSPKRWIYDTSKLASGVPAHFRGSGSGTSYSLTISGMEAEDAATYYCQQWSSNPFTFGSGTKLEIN
light: EIVLTQSPATLSLSPGERATLSCSASSSISSNYLHWYQQKPGQAPRLLIYRTSNLASGIPARFSGSGSGTDYTLTISRLEPEDFAVYYCQQGSYIPFTFGQGTKLEIKRTVAAPSVFIFPPSDEQLKSGTASVVCLLNNFYPREAKVQWKVDNALQSGNSQESVTEQDSKDSTYSLSSTLTLSKADYEKHKVYACEVTHQGLSSPVTKSFNRGEC
notes: Heavy chain: h10B3 VH, IgG1 CH1, hinge, modified CH2, beginning of CH3, murine OKT3 scFv; also called h10B3xOKT3 Fabsc
- binding result [1]: binds

B2: PSMA (humanized h10B3) x CD3 (humanized hUCHT1) bispecific IgGsc format antibody molecule (bispecific antibody)
heavy: QVQLVESGGGLVKPGGSLRLSCAASGFTFSDFYMYWIRQAPGKGLEWVATISDGGGYTSYPDSVKGRFTISRDNAKNSLYLQMNSLRAEDTAVYYCARGLWLRDALDYWGQGTTVTVSSASTKGPSVFPLAPSSKSTSGGTAALGCLVKDYFPEPVTVSWNSGALTSGVHTFPAVLQSSGLYSLSSVVTVPSSSLGTQTYICNVNHKPSNTKVDKKVEPKSCDKTHTCPPCPAPPVAGPSVFLFPPKPKDTLMISRTPEVTCVVVGVSHEDPEVKFNWYVDGVEVHNAKTKPREEQYNSTYRVVSVLTVLHQDWLNGKEYKCKVSNKQLPSPIEKTISKAKGQPREPQVYTLPPSRDELTKNQVSLTCLVKGFYPSDIAVEWESNGQPENNYKTTPPVLDSDGSFFLYSKLTVDKSRWQQGNVFSCSVMHEALHNHYTQKSLSLSPGKSGDIQMTQSPSSLSASVGDRVTITCRASQDIRNYLNWYQQKPGKAPKLLIYYTSRLESGVPSRFSGSGSGTDYTLTISSLQPEDFATYYCQQGNTLPWTFGQGTKVEIKGGGGSGGGGSGGGGSEVQLVESGGGLVQPGGSLRLSCAASGYSFTGYTMNWVRQAPGKGLEWVALINPYKGVSTYNQKFKDRFTISVDKSKNTAYLQMNSLRAEDTAVYYCARSGYYGDSDWYFDVWGQGTLVTVSS
light: EIVLTQSPATLSLSPGERATLSCSASSSISSNYLHWYQQKPGQAPRLLIYRTSNLASGIPARFSGSGSGTDYTLTISRLEPEDFAVYYCQQGSYIPFTFGQGTKLEIKRTVAAPSVFIFPPSDEQLKSGTASVVCLLNNFYPREAKVQWKVDNALQSGNSQESVTEQDSKDSTYSLSSTLTLSKADYEKHKVYACEVTHQGLSSPVTKSFNRGEC
notes: also called CC-1; PSMAxCD3 (h10B3xUCHT1)-IgGsc
- binding result [2]: binds

B3: murine antibody 10B3 (antibody, IgG2b, V domains shown)
VH: QVQLQESGGGLVKPGGSLKLSCAASGFTFSDFYMYWVRQTPEKRLEWVATISDGGGYTSYPDSVKGRFTISRDIAKNNLYLQMNSLKSEDTAKYYCARGLWLRDALDYWGQGTSVTVSS
VL: EIVLTQSPITMAAFLGERITITCSASSSISSNYLHWYQQKPGFSPKLLIYRTSNLASGVPIRFSGSGSGTSYSLTIGTMEAEDVATYYCQQGSYIPFTFGSGTKLEIKR
notes: Mouse hybridoma antibody, isotype IgG2b/kappa; also called mu 10B3; m10B3
- binding result [3]: binds
